The source of these data is patent publication US20130330355A1 (APEXIGEN, published 2013).

The target in experiment [1] is T1, recombinant human IL-1β (human, UniProt P01584 117-269).
T1 construct: The assays (SPR, TF-1 proliferation) say only 'IL-1β'; also called hIL-1β
Nature of the experiment: method not given.

Experiment [2] addresses mouse IL-1β (mouse, UniProt P10749 118-269). Briefly: cross-species reactivity assay, antibody titrated on IL-1β of each species, readout OD405nm.
Experiment [3] deals with monkey IL-1β (monkey). The experiment is described as above.
Experiment [4] has as its target T1, recombinant human IL-1β. Described as above.
The target of experiment [5] is T1, recombinant human IL-1β. Nature of the experiment: cell-based or functional assay.
Experiment [6] has as its target T1, recombinant human IL-1β. Nature of the experiment: SPR. On the procedure: Antigen binding affinities of anti-IL-1β antibodies were measured by surface Plasmon resonance (SPR).

Sequence of mouse IL-1β (P10749 118-269 limits assumed): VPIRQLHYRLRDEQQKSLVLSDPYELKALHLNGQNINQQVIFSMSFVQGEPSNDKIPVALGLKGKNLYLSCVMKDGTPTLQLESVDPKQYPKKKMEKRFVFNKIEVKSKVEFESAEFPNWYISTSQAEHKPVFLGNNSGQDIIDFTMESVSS
Sequence of monkey IL-1β (monkey) (P48090 117-269): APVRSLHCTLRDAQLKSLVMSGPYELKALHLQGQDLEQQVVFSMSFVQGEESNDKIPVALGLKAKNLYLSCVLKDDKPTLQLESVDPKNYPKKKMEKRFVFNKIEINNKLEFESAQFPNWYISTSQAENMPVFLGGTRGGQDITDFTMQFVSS

B1: APX002 (humanized Q26) (antibody, V domains shown)
VH: EVQLVESGGGLVQPGGSLRLSCAVSGFSLDVYTMTWVRQAPGKGLEWIGYIWSGGSASYASWAKGRFTISKDSSKNTVYLQINSLRAEDTAVYFCARVKMISNIETFDPWGPGTLVTVSS
VL: DIQMTQSPSSVSASVGDRVTIKCQASERIYSGLAWYQQKPGKRPKLLIYRASTLASGVPSRFSGSGSGTDFTLTISSLQPEDFATYYCQQGVSSSDIDNVFGGGTKVEIK
With B1, in experiment [1], the Kd – broadly, the constant that tells how readily two partners part at equilibrium – was 199 pM. Also, the binding result in experiment [2] was “no binding (tested: 10 ug/ml)”. The “EC50 (read off the curve)” value in experiment [3] and in experiment [4] was about 600 ng/mL in each case.

B2: Q17 rabbit anti-IL-1β antibody (antibody, V domains shown)
VH: QSVEESGGRLVTPGTPLILTCTVSGFSLDVYTVTWVRQAPGKGLEWIGYIWSGGSASYASWAKGRFTISKTSTTVDLKISSPTTEDTATYFCARVKMISNIETFDPWGPGTLVTVSS
VL: AYDMTQTPASVEVVVGGTVTIKCQASERIYSGLAWYQQKPGQRPKLLIYRASTLASGVPSRFSGSGSGTEFTLTISDLECADAATYYCHQGVSSSDIDNVFGGGTEVVVK
In the case of B2, in experiment [5], the “IC 50, neutralization of IL-1β-induced TF-1 cell proliferation” value (from here on “IC 50, neutralization”) was 1.13 ng/mL.

B3: Q34 rabbit anti-IL-1β antibody (antibody, V domains shown)
VH: B2 VH
VL: B2 VL
B3: the “IC 50, neutralization” value in experiment [5] is 0.55 ng/mL.

B4: clone Q26 rabbit anti-IL-1β antibody (antibody, V domains shown)
VH: B2 VH
VL: B2 VL
notes: Recombinant rabbit IgG expressed in 293-6E cells; the rabbit constant regions are not; also called parental rabbit Q26
Consider B4, for which the “IC 50, neutralization” value in experiment [5] stood at 0.54 ng/mL. Further, in experiment [6], the Kd was found to be 199 pM, the koff (usually a measure of how fast the partners let go of each other) turned out to be 3.8e-05 s⁻¹ and the kon (usually the second-order rate constant of association) was 191000 M⁻¹ s⁻¹.
